{"source": "paper PMC4269169", "molecular_target": "GST-FLAG-Pol12 of Candida glabrata (Candida glabrata)", "test": "pull-down"}
{"substance": "His6-SUMO-Stn1 of Candida glabrata (natural protein)", "values": [{"measurement": "stoichiometry N", "result": 1}]}
